Measured values reported in the nanobody polyreactivity screen of Harvey et al. (2022).

Test: yeast display, Sf9 membrane polyspecificity reagent, FACS + sequencing; frameworks hold sequencing errors
In short: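 Genes from sorted yeast were amplified by colony PCR, read by MiSeq 2 × 250 sequencing and filtered on CDR length. These cells carried a synthetic nanobody library in Saccharomyces cerevisiae BJ5465 and were sorted by FACS into low and high (top ~1%) gates on anti-HA and streptavidin fluorescence. Polyreactivity is labelled according to the gate of origin.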

| Sequence | polyreactivity (PSR sort gate) |
| --- | --- |
| QVQLVESGRGLVRAGGSLRLSCAASGRTFGVYAMGWYRQAPGKERELVASIRYSGVSTYYADSVKGRFTISRDNAKNTVYLQMNSLKPEDTAVYYCAARYRSRRVDYGYDYWGQGTQVTVSS | high polyreactivity |
| QVQLVESGGGLVQAGGSLRLSCAASGSISLVYAMGWYRQATGKERELVAVINHADDTSYADSVKGRFTISRDNAKNTVYLQMNSLKPEDTADYYCAAESSYFVALTQFYTVEFYYWGQGTQLTVSS | low polyreactivity |
| QVQLVESGGGLVQAGGSLRLSCAASGSTFGSYAMGWYRQAPGKERELVADISSRGASTYYADSVKGRFTISRDNAKNTVYLQMNSLKPEDTAVYYCARDVYIWYGYGYFPEYEYWGQGTQVTVSS | low polyreactivity |
| QVQLVESGGGLVQAGGSLRLSCAASGFIFYPYAMGWYRQAAGKERELVASIRRSTASTYYADSVKGRFTISRDNAKNTVYLQMNSLKPEDTAVYYCAARYRSYPKEYDYWGQGTEVTVSS | high polyreactivity |
| QVQLVESGGGLVQAGGSLRLSCADSGGIFDWNDMGWYRHEPGKESELVAAITSGGVTYYADSVKGRFTISRDNAKNTVYLQMNSLIPDDTSVFYCATGYWGLWYGYDSWGQGTQVTVSS | low polyreactivity |
| QVQHVESGGGLVQAGGSLRLSCAASGSTFDRYAMGWNRQAPGKERELVAAISGGGGSTYYADSVKGRFTISRDNAKNTVYLQMNSLKPEDTAVYYCAKLLARGNRYDSWGQGTQLTVSS | high polyreactivity |
| QVHLVESGGGLVQAGGSLRLSCAASGSTVTLYAMGWYRQAPGKERELVASITWSGSTYADSVKGRFTISRDNAKNTVYLQMNSLKPEDTAVYYCNTDPRSVVGWYDYWGQGTQVTVSS | low polyreactivity |
| QVQLVEAGGGLVQAGGSLRLSCASSGNTFYPYAMGWYRQAPGKERELVAVITSGTDTYYADSVKARFTISRDNAKNTVYLQMNSLKPEDTAVYYCAASLYWRYGYWGQGTQVTVSS | high polyreactivity |
| QVQLLETGGGLVQAGGSLRLSCAASGSTFTIYAMGLYRQAPGKEMELVAVITRGSTNYADSVKGRFTISRDNAKNTVYLQMYSLKPEDSAVYYCNARRYGKVVRSRYNYWGQGTQVTVSS | high polyreactivity |
| QVQLVESGGGLVQAGGSLRLSCAASGRTFQFYAMGWYRQAPGKEREWVAAISRSSGSTTYADSVKGRFTISRDNAKNTVYLQMNSLKPEDTAVFYCDADARYRSYSLLVRPARYYYWGQGTQVTVAS | high polyreactivity |
| QVQLVESGGGLVQAGGSLRLSCAASGFTFSYNTMGWYRQAPGKERELVAAIDGSGGSTYYADSVKGRFTISRDNAKNTVYLQMNSLKPEDTAVYYCAAEWYRGGEYRRYDYWGQGTQVTVSS | high polyreactivity |
| QVQLVESGGGLVQAGGSLRLSCAASGFIFDDNAMGWYRQAPGKERELVAAITSGGGSTYYADSVKGRFTISRDNAKNTVYLQMNSLKQEDTAVYYCNAVPSQHDEFDSWGQGTQVTVSS | low polyreactivity |
| QVQLVESGGGLVQAGGSLRLSCAASGSIFGGYAMGWYRQAPGKERELVAAISRSGGRTYYADSVKGRFTISRDNAKNTVYLQMNSLKPEDTAVYYCNRVTGYDSGDGYWGQGTQVTVSS | high polyreactivity |
| QVQLVESGGGLVQAGGSLRLSCAASGSTFYIYAMGWYRQAPGKERELVARISGSGGSTYYADSVKVRFTISRDNAKNTVYLQMNSLKPEDTAVYYCAVDPPYSDSLSRYGYWGQGTQVTVSS | low polyreactivity |
| QVQLVESGRGLVQAGGSLRLSCAPSGSTIQDYAMGWYRQAPGKERELVAAISWRSDITYYAESVKGRFTISRDNAKNTVYLQMNSLKPEDTAVYYCAADNSYHWLDREFDYEFDYWGQGTQVTVSS | high polyreactivity |
| QVQLEESGGGLVQAGGSLSLSCAASGSIFYGYAMGWYRQAPGKERELVAAITSGGRTYYADSVKGRFTISRDNAKNTVYLQMNSLKPEDTAVYYCNAVYRKTSYGYWGQGTQVTVSS | high polyreactivity |
| QVQLVESGGGLVQAGGRLRISSAASGRIFAYYAMGWYRQAPGKERELVAANTTNGGGTYYADSVKGRFTISRDNAKNTVSLQMNSLNPEDPAFYYCATQFEGPAGFNNWGQGTQVTVSS | low polyreactivity |
| QVQLVESGGGLVQAGGSLRLTCAASGITFVYNAMGWYRQAPGKERELVAAISWRGGSTYYADYVKGRFTISRDNAKNTVYLQMNSLKPEDTAVYYCNNLPTYPDYGYDSWGQGTQVTVSS | high polyreactivity |
| QDQLVESGGGLVQAGGSLRLSCAASGSTFHLNALGWYRQSPGKERELVAAISRDGSSTSYADSEKGRFTISRDNAKNTVYLQMNSLKPEDTAVFYCAADDTLDRVPSTFIDGSPGYGYWGLGTQVTVSS | low polyreactivity |
| QVQLVESGGGLVQAGGSLRLSCAASGRLFNYNAMGWYRQAPGKERELVASITVSRGSTYYADSVKGRFTISRDNATNTVYLQMYSLKPEDTAVYNCAADYGSKLDYGYWGQGTQVTVSS | low polyreactivity |
| QVQLVESGGRLVQAGGSLRLSWAASGITFFVNAMGWYRPAPGKERELVAVISRGDSTNYADSVKGRFTISRDNAKNTVYLLMNSLKPEDTAVYYCAADGSRAGLEGNDYWGQGTQVSVSS | low polyreactivity |
| QVQLVESGGGLVQAGGSLRLSCAASGRIFFTYAMGWYRQAPGKERELVAAIDRSGTSTYYADSVKGRFTISRDNAKNTVYLQMNRLKPEDTAVYNCAARPNPNYDEMDYWGQGTQVNVSS | low polyreactivity |

| Sequence | polyreactivity (PSR sort gate) |
| --- | --- |
| QVQLVESGGGLVQAGGSLRLSCAASGFIFYTYAMGWYIQAPGKERELVAAINTSGSTTNYADSVKGRFTISRDNAKNTVYLQMNSLKPEDTAVYYCAAEWNVSPYDYWGQGTQVTVSS | low polyreactivity |
| QVQLVESGGGLVQAGGSLRLSCAASGIIFSYNAMGWYRQAPGKERELVAAITRRGTRTYYADSVKGRFTISRDNAKNTVYLQMNSLKPEDSAVYYCAADYVRPGTKYDYWGQGTQVTVSS | high polyreactivity |
| QVQLVESGGGLVQAGGSLRLSCAASGRIFVINAMGWYRQAPGKERELVADITWSGGSTYADSVKGRFTISRDNAKNTVYLQMNSLKPEETAVYYCAKQRGGQPRSSTYYYWGQGTQVTVSS | high polyreactivity |
| QVQLVESGGGLVQAGGSLRLSCAASGRIFWYYAMVWYRQAPGKERELVATISSRSGSTYYADSVKGRFTISRDNAKNTVYLQMNSLKPEDTAVYYCAAGTPYYLGYRHNYWGQGTQVTVSS | high polyreactivity |
| QVQLVESGGGLVQAGGSLRLSCAASGRIFSEYAMGWYRQAPGKERELVAAISKSGGRTYYADSVKGRFTISRDNAKNTVYLKMNSLKPEDTAVYYCNARAVYPAGYAYDYWGQGTQVTVSS | high polyreactivity |
| QVQLVESGGGLVQAGGSLRLSCAASGSTFDINTMGWYRQAPGKEREFVAAITDSDDSTYYADSVKGRFTISRDNAKNTVYLQMNSLKPEDTAVYYCAHDYDGYVWDTEYDYWGQGTQVTVSS | low polyreactivity |
| QVQLVESGGGLVQAGGSLRLSCAASGRTFYGYAMGWYRQAPGKERELVAAISRSGGRTYYADSVKGRFTISRDNAKNTVYLQMNSLKPEDTAVYYCAAYSVYASPDDYWGQGTQVTVSS | high polyreactivity |
| QVQLVESGGGLVQAGGSLRLSCAASGRTSIGYARGWYRQAPGKERELVAVISIGGTTYYADSVKGRFTISRDNAKNTVYLQMNSLKPEDTAVYYCAADSFPAYLGFVGFDYWGQGTQVTVSS | low polyreactivity |
| QVQLVESGGRLVQAGGSLRLSCAASVRIFFQNAMGWSRQAPGKERELVAGISGSGGSTYYADSVKGRFTISRDNAKNTVYLQMNSLKPEDTAVYYCAARYGIISSFEYDYWGQGTQVTVSS | high polyreactivity |
| QVQLVESGGGLVQAGGSLRLSCAASGSTFQYNAMGWYRQAPGKERELVAAITGSGGSTYYADSVKGRFTISRDNAKNTVYLQMNSLKPEDTAVYYCAKLVRSFNWVLARHKYDYWGQGTQVTVSS | low polyreactivity |
| QVQLVESGGGLVQAGGSLRLSCAASGLTFYAYVMGWYRPAPGNERELVAAISGGGSTYYADSVKGRFTISRDNAKNSVYLEMISLKPEDTAVYYCNAELSLWDLGYDYWVQGTQVTVSS | low polyreactivity |
| QVQLVESGGGLVQAGGSLRLSCAASGSIFSFYMGWYRQAPGKERELVAAISSRGGSTYYADSVKGRFTISRDNAKNTVYLQMISLKPEDTAVYYCAAAGGGKVSYRDYDYWGQGTQVTVSS | high polyreactivity |
| QVQLVESGGGLVQAGGSLRLSCAASGYSFRIYAMGWYRQAPGKERELVATITNGGSTHYADSEKGRFTISRDNAKNTVYLQMNSLKPEDTAVYYCAAYLPGWELRDYGYWGQGTQVTVSS | high polyreactivity |
| QVQLVESGGGLVQAGGSLRLSCAASGFTFRGYAMGWYRQAPGKERELVAAISKRGGSTYYADSVKGRFTISRDNAKNTVYLQMNSLKPEDTAVYYCNADYYIVGPPYAPTREDYWGQGTQVTVSS | high polyreactivity |
| QVQLVESGGGLVQAGGSLRLSCAASGSIFRNYAMGWYRQAPGKERELVAAISRSGSSTFYADSVKGRFTISRDNAKNTVYLQMNSLKPEDTAVYYCAAVDYYTLTGYRYYWGQGTQVTVSS | high polyreactivity |
| HVQLVESGGGLVQAGGSLRLTCAAYGINFTDYAMGWYRQDPGKEMELVAAISSGGGSTYYADSVKGRFTISLDYAKNTVYLQMNSLKPEDTAVYYCAAEGYLISGAGDYMYDYYWGQGTQVTVSS | high polyreactivity |
| HDQLVETGGGLVQAGGSLRLSCAASGRTYSKYAMGRYRQPPGKERELVAAITSGGGTYYADSVKGRFTISRDNAKNTVYVQMNSLSPEDSAVYYCAVSVTTVSTHDYWGQGTQVTVSS | low polyreactivity |
| QVQLVESGGGLVQAGGSLRLSCAASGSIFASNAMGWYRQAPGTERELVAAIDTSGGSTYYADSVKGRFTISRDNAKNTVYLQMNSLKPEDTAVYYCNTDWRDEYYPRYRASKFDYWGQGTQVTVSS | low polyreactivity |
| QVQLVESCGGLVQEGGSLRLSCAASGRIFVVSAMGRYRQAPGKERELVAAISKRGGSTYYADSVKGRFTISRDNAKKTVYLQMNSLKPEDTAVYYCAKSRLVRGRSSYDYWGHGTQVTVSS | high polyreactivity |
| QVQLVESGGGLVHAGGTLRLSCAASGGIFYHYTMGWYRQAPGKERELVASIRVSGGRTYNADSVTGRFTISRDNAKNTVYLQMNSLKPQDSAVYFCNARGSWYQPTYDYWGQGTQVTVSS | high polyreactivity |
| QVQLVESGGGLVQAGGSLRLSCAASGSTFTFYAMGWYRQAPGKERELVAAISGRGGSTYYADSVKGRFTISRDNAMNTVYLQMNSLKPEDTAVYYCAAGWSRVWRRDFGYWGQGTQVTVSS | low polyreactivity |
